US20220227830A1, “QD DOSING OF GIP RECEPTOR AGONIST PEPTIDE COMPOUNDS AND USES THEREOF” (Takeda Pharmaceutical Company Limited, priority 2020, published 2022)
Starred links: 1 amine or outer side, 2 acyl side, 3 side chain; linkers in the order of their positions; H or OH if unused. Non-standard residues stand in square brackets, D forms with d. Groups on a side chain read outwards from the residue. No end group written: not given here. *: point of attachment. C16 diacid = O=C(O)CCCCCCCCCCCCCCC(=O)*; C15 diacid = O=C(O)CCCCCCCCCCCCCC(=O)*; γGlu = O=C(O)[C@H](CCC(=O)[*:2])N[*:1]; NMeY = CN[C@@H](Cc1ccc(O)cc1)C(=O)O; Palmitoyl = CCCCCCCCCCCCCCCC(=O)*; AEEA = NCCOCCOCC(=O)O; Aib = CC(C)(N)C(=O)O

T1: full-length human GIPR with an N-terminal FLAG tag, overexpressed on HEK-293T cells (human, UniProt P48546 22-466)
T1 sequence (looked up): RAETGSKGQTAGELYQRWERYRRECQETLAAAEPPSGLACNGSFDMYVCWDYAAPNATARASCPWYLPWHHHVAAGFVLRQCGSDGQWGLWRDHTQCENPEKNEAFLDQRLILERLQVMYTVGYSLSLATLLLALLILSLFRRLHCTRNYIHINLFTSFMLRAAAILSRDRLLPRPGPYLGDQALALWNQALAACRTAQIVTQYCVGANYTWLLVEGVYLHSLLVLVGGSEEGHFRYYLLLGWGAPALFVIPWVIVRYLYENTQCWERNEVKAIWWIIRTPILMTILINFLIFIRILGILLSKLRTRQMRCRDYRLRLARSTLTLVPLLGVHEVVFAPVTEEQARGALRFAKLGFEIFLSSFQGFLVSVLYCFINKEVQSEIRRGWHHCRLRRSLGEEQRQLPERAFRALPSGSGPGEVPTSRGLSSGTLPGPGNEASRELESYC


How the values were obtained:
human plasma proteins = test: plasma protein binding, ultracentrifugation of spiked plasma, LC-MS/MS
[1] = target: T1, full-length human GIPR with an …; test: cell-based or functional assay
[2] = target: full-length human GLP-1R with an N-terminal FLAG tag, overexpressed on HEK-293T cells (human, UniProt P43220 24-463); test: cell-based or functional assay

Binder	Human PPB (Fu,plasma), fraction unbound (fraction unbound) (human plasma proteins)	Human GIPR cAMP, HEK293T EC50 [1] [nM]	Human GLP1R cAMP HEK293T EC50 [2] [nM]
[NMeY][Aib]EGTFISDYSIAK([AEEA-AEEA-γGlu-γGlu-C15 diacid])DR[Aib]AQ[Aib]NFVNWLLAQK-NH2 (N-terminus assumed; SMILES CC[C@H](C)[C@H](NC(=O)[C@H](CO)NC(=O)[C@H](Cc1ccc(O)cc1)NC(=O)[C@H](CC(=O)O)NC(=O)[C@H](CO)NC(=O)[C@@H](NC(=O)[C@H](Cc1ccccc1)NC(=O)[C@@H](NC(=O)CNC(=O)[C@H](CCC(=O)O)NC(=O)C(C)(C)NC(=O)[C@H](Cc1ccc(O)cc1)NC)[C@@H](C)O)[C@@H](C)CC)C(=O)N[C@@H](C)C(=O)N[C@@H](CCCCNC(=O)COCCOCCNC(=O)COCCOCCNC(=O)CC[C@H](NC(=O)CC[C@H](NC(=O)CCCCCCCCCCCCCC(=O)O)C(=O)O)C(=O)O)C(=O)N[C@@H](CC(=O)O)C(=O)N[C@@H](CCCNC(=N)N)C(=O)NC(C)(C)C(=O)N[C@@H](C)C(=O)N[C@@H](CCC(N)=O)C(=O)NC(C)(C)C(=O)N[C@@H](CC(N)=O)C(=O)N[C@@H](Cc1ccccc1)C(=O)N[C@H](C(=O)N[C@@H](CC(N)=O)C(=O)N[C@@H](Cc1c[nH]c2ccccc12)C(=O)N[C@@H](CC(C)C)C(=O)N[C@@H](CC(C)C)C(=O)N[C@@H](C)C(=O)N[C@@H](CCC(N)=O)C(=O)N[C@@H](CCCCN)C(N)=O)C(C)C) [Compound 22]	0.0413	–	–
[NMeY][Aib]EGTFISDYSIALDR[Aib]AQ[Aib]K([AEEA-γGlu-γGlu-γGlu-C15 diacid])FVNWLLAQK-NH2 (N-terminus assumed; SMILES CC[C@H](C)[C@H](NC(=O)[C@H](CO)NC(=O)[C@H](Cc1ccc(O)cc1)NC(=O)[C@H](CC(=O)O)NC(=O)[C@H](CO)NC(=O)[C@@H](NC(=O)[C@H](Cc1ccccc1)NC(=O)[C@@H](NC(=O)CNC(=O)[C@H](CCC(=O)O)NC(=O)C(C)(C)NC(=O)[C@H](Cc1ccc(O)cc1)NC)[C@@H](C)O)[C@@H](C)CC)C(=O)N[C@@H](C)C(=O)N[C@@H](CC(C)C)C(=O)N[C@@H](CC(=O)O)C(=O)N[C@@H](CCCNC(=N)N)C(=O)NC(C)(C)C(=O)N[C@@H](C)C(=O)N[C@@H](CCC(N)=O)C(=O)NC(C)(C)C(=O)N[C@@H](CCCCNC(=O)COCCOCCNC(=O)CC[C@H](NC(=O)CC[C@H](NC(=O)CC[C@H](NC(=O)CCCCCCCCCCCCCC(=O)O)C(=O)O)C(=O)O)C(=O)O)C(=O)N[C@@H](Cc1ccccc1)C(=O)N[C@H](C(=O)N[C@@H](CC(N)=O)C(=O)N[C@@H](Cc1c[nH]c2ccccc12)C(=O)N[C@@H](CC(C)C)C(=O)N[C@@H](CC(C)C)C(=O)N[C@@H](C)C(=O)N[C@@H](CCC(N)=O)C(=O)N[C@@H](CCCCN)C(N)=O)C(C)C) [Compound 24]	0.0512	–	–
[NMeY][Aib]EGTFISDYSIAK([Gly-Gly-Glu-Glu-Glu-C15 diacid])DR[Aib]AQ[Aib]NFVNWLLAQK-NH2 (not fully specified) [Compound 30]	0.0407	–	–
YGEGTFISDYSIAK([AEEA-AEEA-γGlu-C16 diacid])DRIHQQNFVNWLLAQK [Compound 192]	–	0.148	741
Me-Y[Aib]EGTFISDYSIAK([AEEA-AEEA-γGlu-C16 diacid])DRIAQ[Aib]NFVNWLLAQK [Compound 196]	–	0.0002	692
Me-Y[Aib]EGTFISDYSIALDR[Aib]AQ[Aib]K([2OEG-γGlu-γGlu-γGlu-C15 diacid])FVNWLLAQKG-OH [Compound 201]	–	0.0002	9.12
[NMeY][Aib]EGTFISDYSI[Aib]LDR[Aib]AQ[Aib]K([AEEA-AEEA-γGlu-γGlu-Palmitoyl])FVNWLLAQRG-OH (not fully specified (N-terminus)) [Compound 203]	–	0.003	2.63
Me-Y[Aib]EGTFISDYSIALDR[Aib]AQ[Aib]K([2OEG-γGlu-γGlu-C15 diacid])FVNWLLAQKG-NH2 [Compound 205]	–	0.0002	13.5
Me-YGEGTFISDYSIALDR[Aib]AQ[Aib]K([2OEG-γGlu-γGlu-C15 diacid])FVNWLLAQKG-OH [Compound 206]	–	0.0013	145
Me-Y[Aib]EGTFISDYSIALDR[Aib]AQ[Aib]K([2OEG-γGlu-γGlu-C15 diacid])FVNWLLAQKPSSGAPPPS-NH2 [Compound 209]	–	0.0003	479
Me-Y[Aib]EGTFISDYSIALDR[Aib]AQ[Aib]K([2OEG-γGlu-γGlu-C15 diacid])FVNWLLAQK-NH2 [Compound 210]	–	0.0003	129
Me-Y[Aib]EGTFISDYSIALDR[Aib]AQ[Aib]K([2OEG-γGlu-γGlu-C15 diacid])FVNWLLAQRG-OH [Compound 211]	–	0.0002	174
Me-Y[Aib]EGTFISDYSIALDR[Aib]AQ[Aib]KFVNWLLAQKG-OH (not fully specified (residues 1, 21)) [Compound 212]	–	0.0002	66.1
Me-Y[Aib]EGTFISDYSIALDR[Aib]AQ[Aib]K([2OEG-γGlu-C15 diacid])FVNWLLAQKG-OH [Compound 213]	–	0.0003	17
Me-Y[Aib]EGTFISDYSIALDR[Aib]AQ[Aib]K([G5gEgE-C15 diacid])FVNWLLAQKG-OH [Compound 215]	–	0.0002	45.7
Me-Y[dA]EGTFISDYSIALDR[Aib]AQ[Aib]K([2OEG-γGlu-γGlu-C15 diacid])FVNWLLAQKG-OH [Compound 216]	–	0.0003	34.7
Me-YAEGTFISDYSIALDR[Aib]AQ[Aib]K([2OEG-γGlu-γGlu-C15 diacid])FVNWLLAQKG-OH [Compound 217]	–	0.0002	4.9
Me-Y[Aib]EGTFISDYSIALDR[Aib]AQ[Aib]K([2OEG-C15 diacid])FVNWLLAQKG-OH [Compound 218]	–	0.0006	89.1
